Data: US20150024465A1, “Carbohydrate-Binding Modules of a New Family” (Novozymes A/S, priority 2003, published 2015)

Key:
[1] = Binding of CBMX to PASC (A280 of supernatant); conditions: for A280: Absorbance at 280 nm of 200 μl supernatant, absorbance of buffer subtracted: 20 mM Tris pH 7.5, 4 hours room temperature
Experimental: A similar binding study was performed with PASC (Phosphoric Acid Swollen Cellulose: To 5 g Avicel® moisted with water 150 ml ice-cold 85 ortho-phosphoric acid is added. After 1 hour stirring on ice bath, 500 ml cold acetone is added. The suspension is filtered and washed, first with acetone and then with water). 50 μl purified CBMX was mixed with 500 μl 20 mM Tris, pH 7.5 containing varying amount of PASO (0-10 mg/ml) in an Eppendorf tube. Samples were incubated 4 hours at room temperature with agitation. After centrifugation, 200 μl supernatant was transferred to the well of a microtiter plate and absorbance read at 280 nm.

[2] = Competition binding assay, references without soluble carbohydrate
Experimental: (§1) Affinity of CBMX for a number of soluble carbohydrates was tested in a competition assay by mixing 100 μl CBMX with both Avicel® (400 μl 50 mg/ml in 20 mM Tris, pH 7.5) and the soluble carbohydrate (dissolved in 500 μl 20 mM Tris, pH 7.5). As references, samples without CBMX or soluble carbohydrate added were used. If CBMX has affinity for the soluble carbohydrate it should be able to keep CBMX in solution which can be measured as increase in absorbance at 280 nm compared to sample without soluble carbohydrate added. After 4 hours incubation at room temperature with agitation, samples were centrifuged and absorbance at 280 nm was read using 200 μl supernatant in the well of a microtiter UV plate. Tested soluble carbohydrates were barley β-glucan (Megazyme, low viscosity), lichenan (Megazyme, Icelandic moss), CMC (carboxymethyl cellulose 7LF, Hercules, USA), Xyloglucan (Megazyme, amyloid, from tamarind seed), lupin galactan (Megazyme) and Locust bean gum (Sigma, G-0753).

[3] = Binding of CBMX to Avicel (A280 of supernatant after incubation and centrifugation); conditions: shorter incubation time (15 min to 1 hour) compared with 4 hours
[4] = as above; conditions: for A280: Absorbance at 280 nm of 200 μl supernatant, absorbance of buffer and Avicel subtracted: 20 mM Tris pH 7.5, 4 hours room temperature
Experimental: The carbohydrate-binding domain with affinity for Avicel® and purified as described in Example 2 (CBMX) was studied further. 50 μl purified CBMX was mixed with 500 μl 20 mM Tris, pH 7.5 containing varying amount of Avicel® (0-100 mg/ml) in an Eppendorf tube. After 4 hours incubation at room temperature with agitation, the samples were centrifuged. 200 μl supernatant was transferred to the well of a microtiter plate (Costar, UV plate) and absorbance read at 280 nm on a microtiter plate reader (SpectraMax® Plus, Molecular Devices).

[5] = Competition binding assay with CBMX, Avicel and soluble carbohydrate; conditions: for Difference in A280 between samples with and without CBMX added: Avicel 20 mg/ml, 4 hours room temperature; for Share of CBMX kept in solution by the soluble carbohydrate (in words): competition with Avicel
Experimental: as §1

B1: CBMX: Carbohydrate-binding module of Pseudoplectania nigrella GH61 (positions 34-174 of SEQ ID NO:2), expressed in Aspergillus oryzae, purified on Avicel (protein, listed as Pseudoplectania nigrella)
chain: SSGTSNDKAVASSSIAAVDPVTSSVVASVQVPNFTATDVPTFTATDIPTFTATDVPIFTKKPQQPSTLLTRTRTHASVSFVAKPSAFIPKPSASTIPSKPKTPEEVNKCLDAVNACITQAQSSIGGVVNFEPCESQRALCY
[1]; PASC 0.0 mg/ml (CBMX alone)
  A280: Absorbance at 280 nm of 200 μl supernatant, absorbance of buffer subtracted: 0.0753
[1]; PASC 0.625 mg/ml
  A280: Absorbance at 280 nm of 200 μl supernatant, absorbance of buffer subtracted: 0.0682
[1]; PASC 1.25 mg/ml
  A280: Absorbance at 280 nm of 200 μl supernatant, absorbance of buffer subtracted: 0.0710
[1]; PASC 2.5 mg/ml
  A280: Absorbance at 280 nm of 200 μl supernatant, absorbance of buffer subtracted: 0.0618
[1]; PASC 5 mg/ml
  A280: Absorbance at 280 nm of 200 μl supernatant, absorbance of buffer subtracted: 0.0512
[1]; PASC 10 mg/ml
  A280: Absorbance at 280 nm of 200 μl supernatant, absorbance of buffer subtracted: 0.0471
[1]; increasing amount of PASC reduces absorbance of CBMX in the supernatant
  Affinity for PASC (in words): has affinity
[2]; None - Only Avicel (20 mg/ml) and CBMX, no soluble carbohydrate
  Difference in A280 between samples with and without CBMX added: 0.018
[2]; None - Only CBMX, no Avicel
  Difference in A280 between samples with and without CBMX added: 0.108
[3]
  Completeness of binding to Avicel (in words): less complete binding
[4]; Avicel 0.0 mg/ml (CBMX alone)
  A280: Absorbance at 280 nm of 200 μl supernatant, absorbance of buffer and Avicel subtracted: 0.0768
[4]; Avicel 0.391 mg/ml
  A280: Absorbance at 280 nm of 200 μl supernatant, absorbance of buffer and Avicel subtracted: 0.0777
[4]; Avicel 0.781 mg/ml
  A280: Absorbance at 280 nm of 200 μl supernatant, absorbance of buffer and Avicel subtracted: 0.0808
[4]; Avicel 1.563 mg/ml
  A280: Absorbance at 280 nm of 200 μl supernatant, absorbance of buffer and Avicel subtracted: 0.0799
[4]; Avicel 3.125 mg/ml
  A280: Absorbance at 280 nm of 200 μl supernatant, absorbance of buffer and Avicel subtracted: 0.0729
[4]; Avicel 6.25 mg/ml
  A280: Absorbance at 280 nm of 200 μl supernatant, absorbance of buffer and Avicel subtracted: 0.0637
[4]; Avicel 12.5 mg/ml
  A280: Absorbance at 280 nm of 200 μl supernatant, absorbance of buffer and Avicel subtracted: 0.0540
[4]; Avicel 25 mg/ml
  A280: Absorbance at 280 nm of 200 μl supernatant, absorbance of buffer and Avicel subtracted: 0.0326
[4]; Avicel 50 mg/ml
  A280: Absorbance at 280 nm of 200 μl supernatant, absorbance of buffer and Avicel subtracted: 0.0185
[4]; Avicel 100 mg/ml
  A280: Absorbance at 280 nm of 200 μl supernatant, absorbance of buffer and Avicel subtracted: 0.0095
[4]; highest concentrations of Avicel, 4 hours incubation
  Share of the protein that binds to Avicel (in words): large majority of the protein binds
[4]; summary statement
  Affinity for Avicel (in words): shown to have affinity
[5]; CMC 25 mg/ml
  Difference in A280 between samples with and without CBMX added: 0.129
[5]; CMC
  Share of CBMX kept in solution by the soluble carbohydrate (in words): almost all
[5]; Galactan 20 mg/ml
  Difference in A280 between samples with and without CBMX added: 0.043
[5]; Lichenan 20 mg/ml
  Difference in A280 between samples with and without CBMX added: 0.025
[5]; Locust bean gum 25 mg/ml
  Difference in A280 between samples with and without CBMX added: 0.087
[5]; Xyloglucan 11 mg/ml
  Difference in A280 between samples with and without CBMX added: 0.052
[5]; beta-Glucan 20 mg/ml
  Difference in A280 between samples with and without CBMX added: 0.100
[5]; beta-glucan
  Share of CBMX kept in solution by the soluble carbohydrate (in words): almost all
[5]; galactan
  Affinity of CBMX for the soluble carbohydrate (in words): to some extent
  Share of CBMX kept in solution by the soluble carbohydrate (in words): about half
[5]; lichenan
  Affinity of CBMX for the soluble carbohydrate (in words): no affinity
  Share of CBMX kept in solution by the soluble carbohydrate (in words): does not result in any increase
[5]; locust bean gum
  Share of CBMX kept in solution by the soluble carbohydrate (in words): the majority
[5]; xyloglucan
  Affinity of CBMX for the soluble carbohydrate (in words): to some extent
  Share of CBMX kept in solution by the soluble carbohydrate (in words): about half
